In assay [1] the target is T1, Biotinylated recombinant human CD8α (Fisher Scientific #17196181) (human, UniProt P01732 22-182, biotinylated (site not stated)).
T1 construct: Bought protein; also called hCD8α; recombinant human CD8α protein
Put plainly: dose-response ELISA on biotinylated human CD8α captured on streptavidin, human IgG1 format. How it is done:
(§1) […] of streptavidin were coated on Nunc Maxisorp 96-well plates (ThermoFisher #442404) at 100 μL/well and incubated 1 hour at room temperature. Biotinylated human CD8α (Fisher Scientific #17196181) and mouse CD8α (Sino biological #50389-M08H-B) were added at 0.5 μg/mL in 100 μL/well and incubated overnight at 4° C. Human CD4 (Sino biological #10400-H08H) was coated passively at 1 μg/mL in 100 μL/well and incubated overnight at 4° C. Plates were then blocked using 200 μL of PBS containing 4% skimmed milk for 1 hour at room temperature.
(§2) The three antibody clones (in both human IgG1 lambda and rat IgG2b kappa formats) were diluted in milk-PBS and tested at different concentrations (75, 25, 8.3, 2.8, 0.93, 0.31, 0.103, 0.034, 0.011, 0.0038, 0.0013 and 0.00042 μg/mL). 100 μL/well were incubated 1 hour at room temperature.
(§3) TMB ((3,3′,5,5′ tetramethylbenzidine) Thermo Scientific #12617087) was added for a 3-minute incubation. Reaction was stopped with H₂SO₄ and absorbance at 450 nm was read on a microplate reader (Pherastar FS, BMG Labtech).

Assay [2] deals with T2, Biotinylated recombinant mouse CD8α (Sino biological #50389-M08H-B) (mouse, UniProt P01731 28-196, biotinylated (site not stated)). Description: dose-response ELISA, human IgG1 format. How it is done:
as §1, §2, §3

Assay [3] deals with T3, Recombinant human CD4 (Sino biological #10400-H08H) (human, UniProt P01730 26-390). Description: dose-response ELISA on coated human CD4, human IgG1 format. The procedure:
as §1, §2, §3

In assay [4] the target is T1, Biotinylated recombinant human CD8α …. Put plainly: dose-response ELISA on biotinylated human CD8α captured on streptavidin, rat IgG2b format. The procedure:
as §1, §2, §3

Assay [5] concerns the target T2, Biotinylated recombinant mouse CD8α …. Description: dose-response ELISA, rat IgG2b format. How it is done:
as §1, §2, §3

The target of assay [6] is T3, Recombinant human CD4 (Sino biological …). Put plainly: dose-response ELISA on coated human CD4, rat IgG2b format. How it is done: as §1, §2, §3

Changes are numbered by the printed parent chain.

T1 sequence (P01732 22-182 limits assumed): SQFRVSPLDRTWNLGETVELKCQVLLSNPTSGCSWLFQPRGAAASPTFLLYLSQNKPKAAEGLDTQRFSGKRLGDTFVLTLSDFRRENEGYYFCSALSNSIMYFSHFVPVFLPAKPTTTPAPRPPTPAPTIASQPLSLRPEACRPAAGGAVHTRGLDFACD
T2 sequence (P01731 28-196 limits assumed, stated change not applied): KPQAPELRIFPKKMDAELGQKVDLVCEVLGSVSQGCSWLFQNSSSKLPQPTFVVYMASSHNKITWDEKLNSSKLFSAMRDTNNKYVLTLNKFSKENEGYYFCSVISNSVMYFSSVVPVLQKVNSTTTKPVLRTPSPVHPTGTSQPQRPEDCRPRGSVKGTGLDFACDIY

B1: MP08-R3-F08 in the human IgG1 lambda format (antibody, V domains shown)
VH: EVQLVESGGSLVKPGGSLRLSCAASGFTFSNNAMNWVRQAPGKGLEWISDISGSSRYIGYADFVKGRFTISRDNAKNSLYLQMNSLRAEDTAVYYCVRSSNYYDYNADAMDVWGRGTLVTVSS
VL: QSVLTQPASVSGSPGQSITISCAGTSSDVGGNSYVSWYQQHPGKAPKLMIYSDSSRPSGVSNRFSGSKSGNTASLTISGLQAEDEADYYCSSYTQYSTRVFGGGTKLAVLG
notes: Whole human IgG1 lambda made in ExpiCHO cells; also called hMP08-R3-F08; MP08-R3-F08 human IgG1 clone; copies: 2 + 2
In the case of B1, the concentration for a half-maximal effect (EC50) in assay [1] worked out at 280 pM. For the same molecule, the binding result in assay [2] and in assay [3] was “no binding (tested: 75 µg/mL (highest concentration tested))” each time.

B2: MP08-R3-F08 in the rat IgG2b kappa format (antibody, V domains shown)
VH: B1 VH
VL: QSVLTQPASVSGSPGQSITISCAGTSSDVGGNSYVSWYQQHPGKAPKLMIYSDSSRPSGVSNRFSGSKSGNTASLTISGLQAEDEADYYCSSYTQYSTRVFGGGTKLAVL
notes: Same VH and VL cloned into a rat IgG2b kappa format; also called MP08-R3-F08 rat IgG2b
B2: in assay [4], the concentration giving a half-maximal response (EC50) turned out to be 200 pM. Further, the binding result in assay [5] and in assay [6] was “no binding (tested: 75 µg/mL (highest concentration tested))” throughout.

B3: MP08-R3-C11 in the rat IgG2b kappa format (antibody, V domains shown)
VH: EVQLVESGGSLVKPGGSLRLSCAASGFTFSNYDMNWVRQAPGKGLEWISDISGSSSYIDYADFVKGRFTISRDNAKNSLYLQMNSLRAEDTAVYYCVRSSYYSGSGMDVWGRGTLVTVSS
VL: B2 VL with N32G, Y34S, S52Q, S55Y, Q95Y
notes: Same VH and VL cloned into a rat IgG2b kappa format; also called MP08-R3-C11 rat IgG2b
For the molecule B3, the EC50 in assay [4] was determined as 480 pM. The binding result in assay [5] and in assay [6] was “no binding (tested: 75 µg/mL (highest concentration tested))” throughout.

B4: MP09-R3-D03 in the rat IgG2b kappa format (antibody, V domains shown)
VH: EVQLVESGGSLVKPGGSLRLSCAASGFTFSNYYMNWVRQAPGKGLEWISSISGSSRYIYYADFVKGRFTISRDNAKNSLYLQMNSLRAEDTAVYYCVRSSGSYFGNAMDVWGRGTLVTVSS
VL: B2 VL with N32Y, S33Y, Y34S, S52Y, Y93D, Q95S
notes: Same VH and VL cloned into a rat IgG2b kappa format; also called MP09-R3-D03 rat IgG2b; MP09-R3-D3
Turning to B4, the half-maximal effective concentration (EC50) in assay [4] is 990 pM. Also, the binding result in assay [5] and in assay [6] was “no binding (tested: 75 µg/mL (highest concentration tested))” throughout.

B5: MP08-R3-C11 in the human IgG1 lambda format (antibody, V domains shown)
VH: B3 VH
VL: B2 VL with N32G, Y34S, S52Q, S55Y, Q95Y
notes: Whole human IgG1 lambda made in ExpiCHO cells; also called hMP08-R3-C11; MP08-R3-C11 human IgG1 clone
With B5, the EC50 in assay [1] worked out at 2400 pM. Further, the binding result in assay [2] and in assay [3] was “no binding (tested: 75 µg/mL (highest concentration tested))” in each case.

B6: MP09-R3-D03 in the human IgG1 lambda format (antibody, V domains shown)
VH: B4 VH
VL: B2 VL with N32Y, S33Y, Y34S, S52Y, Y93D, Q95S
notes: Whole human IgG1 lambda made in ExpiCHO cells; also called hMP09-R3-D03; MP09-R3-D03 human IgG1 clone
On to B6, for which the 50% effective concentration (EC50) in assay [1] is 2000 pM. In addition, the binding result in assay [2] and in assay [3] was “no binding (tested: 75 µg/mL (highest concentration tested))” throughout.

These data come from patent US20250277036A1 (POLYGON THERAPEUTICS, published 2025).
